Residues, ends and D or L forms follow the SMILES beside them. No end group written: not given here. *: point of attachment. 5FAM = O=C1OC2(c3ccc(O)cc3Oc3cc(O)ccc32)c2ccc(C(=O)*)cc21; Flu = fluorescein

The target in assay [1] is GINS (6xHis-3xFlag-Sld5, Psf1, Psf2, Psf3) for pulldown experiments (UniProt Q9BRT9).
Another assay has as its target T1, GINS tetramer (Homo sapiens, UniProt Q14691+Q9BRT9+Q9BRX5+Q9Y248).
T1 construct: made in house; host or cells: SF9 insect cells, single baculovirus made with pBig1a
Put plainly: Fluorescence polarisation of fluorescein-labelled GINI-core peptides with GINS. In kind it is binding. The settings on record: room temperature. From the text: As the predicted interface between the TopBP1-GINI region and GINS[32] was not evident in our cryo-EM map we used additional interaction experiments to validate a role for this motif in GINS binding. The GINI region had been loosely defined as sitting between TopBP1-BRCT3 and BRCT4 (Fig. 1a(i)). […] We mutated this core, and other regions of conservation, to generate the mutants TopBP1-Gcc (GINI centre core), Gcore (GINI core) and RI-III (regions I-III) (Fig. 3a, Supplementary Fig. 7). […] To test if this helix constituted a GINS-interaction surface, we used fluorescence polarisation (FP). A fluorescently labelled GINI-core peptide (Ala478-Gly497) bound the GINS tetramer with a dissociation constant of Kd of ~8 µM (Fig. 3d). […] We therefore concluded that the GINI region is a GINS interaction site in its own right, but with moderate binding affinity.
Fig. 3 The conserved core of the TopBP1-GINI domain is required for a stable interaction with GINS. a Domain model and T-COFFEE alignment (one-letter aa code) of TopBP1 proteins from humans (Q92547) Xenopus laevis (Q7ZZY3), Bos taurus (A0A3Q1LWE4) and Rattus norvegicus (A0A8I6GFZ6). […] Source data are provided as a Source data file. d Fluorescence polarisation measurements including dissociation constants (kD) calculations using recombinant GINS tetramer and fluorescently labelled TopBP1-GINI-core peptides (WT or Gpp (a)). […]

In assay [2] the target is T2, GINS (HIS-(3C)-Sld5, Psf1, Psf2, Psf3) for structural and fluorescence polarisation studies (UniProt Q9BRT9 1-223; Q14691 1-196; Q9Y248 1-185; Q9BRX5 1-216).
T2 construct: Sld5 subunit of GINS; Psf1 subunit of GINS, with its B domain; Psf2 subunit of GINS; Psf3 subunit of GINS; A 3C site follows the His tag on Sld5; no cleavage is described; also called GINS tetramer; GINS complex; source: Sf9 insect cells, single baculovirus (pBig1a), purified (TALON, Superdex200); copies: + + +
Put plainly: fluorescence polarisation; 100 nM fluorescein-labelled peptide, increasing concentrations of GINS; 25 mM HEPES pH 7.5, 150 mM NaCl, 1 mM EDTA, 0.25 mM TCEP, 0.02% Tween 20; room temperature. As to conditions: both partners purified. A general note: In fluorescence polarisation assays a small probe gives low polarisation when free and higher when bound to something large.

For another assay, the system named is GINS complex. The assay can be described thus: Size exclusion chromatography co-elution with GINS. In kind it is binding. As to conditions: Superdex200; 20 µM of each component; 10 mM HEPES pH 7.5, 150 mM NaCl, 0.5 mM TCEP. The protocol:
Recombinant TopBP1 and GINS proteins were mixed in an equimolar ratio to give a final concentration of 20 µM of each component and incubated on ice for at least 30 min prior to application to a Superdex200increase 10 300 column (GE Healthcare, Little Chalfont, UK) equilibrated in 10 mM HEPES pH 7.5, 150 mM NaCl, 0.5 mM TCEP.
In general terms: In gel filtration, larger molecules generally elute earlier.

In a further assay the test system is GINS. Put plainly: Pulldown of recombinant TopBP1-BRCT0-5 by immobilised GINS, 150 mM NaCl. The class given is binding. The settings on record: summary of recombinant protein interaction tests (yes/no). From the text:
Fig. 1 GINS and TopBP1 interact. a (i) Domain model of human (hs) TopBP1, its conservation with BRCT1/2 and 3/4 domains (grey boxes) of budding yeast Dpb11 (scDpb11). Arrows point to binding domains for interacting proteins. (ii) Overview of TopBP1 wild type (WT) and BRCT deletion (Δ) and point mutants. GINS binding capabilities are labelled in red and green. Numbers, amino acid position; capital letters indicate amino acid substitutions. Amino acid substitutions of point mutants in BRCT4 (B4mut) and 5 (B5mut) are coloured orange. b Elution profiles of size exclusion chromatography (Superdex200) of individual recombinant TopBP1-BRCT0-5 protein (grey) and GINS tetramers (green), or of both upon incubation (blue). c Recombinant GINS immobilised on Flag-beads and control beads (Flag peptide-coupled beads) were used to pull down recombinant TopBP1-0-5-WT or TopBP1-ΔBRCT4/5 (compare a(ii)). SDS gels were silver stained. kDa specifies molecular weight marker bands. The experiment was done more than three times with similar results. Source data are provided as a Source data file. TEXT PRINTED IN THE PICTURE: (a) BRCT0-5-WT: GINS binding? (rec. proteins): yes | (a) ΔBRCT4/5: GINS binding? (rec. proteins): no | (a) ΔBRCT3: GINS binding? (rec. proteins): yes | (a) ΔBRCT0/1/2: GINS binding? (rec. proteins): yes | (a) B5mut: GINS binding? (rec. proteins): yes | (a) B4mut: GINS binding? (rec. proteins): no
Fig. 2 Protein structure of the GINS-TopBP1-BRCT4/5 complex. a Structural model of the GINS-TopBP1-BRCT4/5 complex. Crystal structures of the GINS subunits (PDB:2E9X) (shades of green, yellow), and the central BRCT4/5 domain of TopBP1 (PDB:3UEN) (grey) were docked into the cryo-EM volume shown as transparent volume. b Zoom-in of the BRCT4-Psf1 interface. The residues in stick representation appear crucial for the interface. Mutations to break the interaction are coloured pink (Psf1-I97R) and purple (TopBP1-B4mut; compare Fig. 1a(ii)). c Pulldown of the indicated recombinant TopBP1-BRCT0-5-strep versions (see Fig. 1a(ii)) by Flag-beads-immobilised recombinant GINS or Flag peptide-coupled control beads. Analysis was done by immunoblotting. The experiment was done more than three times with similar results. d Pulldown of the indicated recombinant TopBP1-BRCT0-5-WT-strep using immobilised GINS-WT or GINS carrying a Ile97 to arginine mutation in Psf1.TopBP1-Gcc/B4mut-strep (Figs. 1a(ii) and 3a) was used as a non-GINS binding control. The experiment was done twice with similar results. Source data are provided as a Source data file.
Fig. 3 The conserved core of the TopBP1-GINI domain is required for a stable interaction with GINS. a Domain model and T-COFFEE alignment (one-letter aa code) of TopBP1 proteins from humans (Q92547) Xenopus laevis (Q7ZZY3), Bos taurus (A0A3Q1LWE4) and Rattus norvegicus (A0A8I6GFZ6). Coloured boxes indicate GINI region mutants in sub-regions I (blue), II (green) and III (orange), and in the GINI core helix (red) (details in Supplementary Fig. 7). Amino acid substitutions, names of GINI core region mutations and corresponding GINS binding capabilities are shown. ., : and * indicate low conservation, high conservation and identical amino acids, respectively. b/c Pulldown of recombinant TopBP1-BRCT0-5-strep-WT or the indicated GINI region mutants (a) by bead-immobilised GINS or Flag peptide-coupled control beads. Analysis was done by immunoblotting. The experiments were done more than three times with similar results. Source data are provided as a Source data file. d Fluorescence polarisation measurements including dissociation constants (kD) calculations using recombinant GINS tetramer and fluorescently labelled TopBP1-GINI-core peptides (WT or Gpp (a)). For each peptide n = 3 independent experiments and data are presented as mean values +/−SEM. TEXT PRINTED IN THE PICTURE: (a) TopBP1-Gcc: GINS binding? (rec. proteins): no | (a) TopBP1-Gcore: GINS binding? […]

T1 sequence (Q14691 whole entry): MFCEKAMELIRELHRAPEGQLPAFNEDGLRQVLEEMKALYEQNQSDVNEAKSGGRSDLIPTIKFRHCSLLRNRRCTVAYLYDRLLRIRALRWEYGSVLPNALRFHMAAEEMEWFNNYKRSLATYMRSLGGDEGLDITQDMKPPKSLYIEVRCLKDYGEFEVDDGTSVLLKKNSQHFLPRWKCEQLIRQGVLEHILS
T1 sequence (Q9BRX5 whole entry): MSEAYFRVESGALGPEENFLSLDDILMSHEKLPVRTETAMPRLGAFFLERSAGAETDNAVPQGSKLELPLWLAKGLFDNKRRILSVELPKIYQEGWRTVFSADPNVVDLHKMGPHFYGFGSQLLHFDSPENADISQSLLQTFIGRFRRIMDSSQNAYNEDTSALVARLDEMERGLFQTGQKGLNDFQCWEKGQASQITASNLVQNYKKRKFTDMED
T1 sequence (Q9Y248 whole entry partner): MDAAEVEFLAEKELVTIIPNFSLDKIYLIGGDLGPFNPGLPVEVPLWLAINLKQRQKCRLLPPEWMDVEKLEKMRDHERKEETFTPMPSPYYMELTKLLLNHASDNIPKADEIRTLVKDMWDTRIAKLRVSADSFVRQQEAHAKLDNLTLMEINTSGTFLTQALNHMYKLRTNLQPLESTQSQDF
T1 sequence (Q9BRT9 whole entry partner): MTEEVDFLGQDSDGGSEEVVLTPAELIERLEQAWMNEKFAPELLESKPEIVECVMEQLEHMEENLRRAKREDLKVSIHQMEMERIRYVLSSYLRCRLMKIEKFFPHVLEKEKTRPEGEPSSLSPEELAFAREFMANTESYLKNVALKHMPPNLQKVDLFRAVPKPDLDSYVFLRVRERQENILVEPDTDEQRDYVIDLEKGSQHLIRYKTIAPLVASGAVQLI
Sequence of GINS (6xHis-3xFlag-Sld5, Psf1, Psf2, Psf3) for pulldown experiments (Q9BRT9 whole entry, chain 1 of 4): as the sequence (Q9BRT9 whole entry partner) above
Sequence of GINS (6xHis-3xFlag-Sld5, Psf1, Psf2, Psf3) for pulldown experiments (Q14691 whole entry, chain 2 of 4, further chain): as the sequence (Q14691 whole entry) above
Sequence of GINS (6xHis-3xFlag-Sld5, Psf1, Psf2, Psf3) for pulldown experiments (Q9Y248 whole entry, chain 3 of 4, further chain): as the sequence (Q9Y248 whole entry partner) above
Sequence of GINS (6xHis-3xFlag-Sld5, Psf1, Psf2, Psf3) for pulldown experiments (Q9BRX5 whole entry, chain 4 of 4, further chain): as the sequence (Q9BRX5 whole entry) above
T2 sequence (Q9BRT9 whole entry, chain 1 of 4): as the sequence (Q9BRT9 whole entry partner) above
T2 sequence (Q14691 whole entry, chain 2 of 4): as the sequence (Q14691 whole entry) above
T2 sequence (Q9Y248 whole entry, chain 3 of 4): as the sequence (Q9Y248 whole entry partner) above
T2 sequence (Q9BRX5 whole entry, chain 4 of 4): as the sequence (Q9BRX5 whole entry) above

“TopBP1-BRCT0-5-Gcc (from UniProt Q92547 1-766) (domain or fragment)” displayed a reduction of nucleotide incorporation (α-32P-dCTP) in TopBP1-depleted Xenopus egg extract after add-back, 120 min time point in assay [1] of 21%. “Flu-GYGAPSEKHEQADEDPPSQYENG [TOPBP1(478-497) L490P L491P, fluorescein-labelled GINI-core peptide with LL to PP mutation]”: the “binding to GINS by fluorescence polarisation” value on GINS tetramer (peptide 100 nM, 150 mM NaCl, n = 3) is “failed to bind”. Regarding `CC(C)C[C@H](NC(=O)[C@H](CC(=O)O)NC(=O)[C@H](CCC(=O)O)NC(=O)[C@H](CC(=O)O)NC(=O)[C@H](C)NC(=O)[C@H](CCC(N)=O)NC(=O)[C@H](CCC(=O)O)NC(=O)[C@H](Cc1c[nH]cn1)NC(=O)[C@H](CCCCN)NC(=O)[C@H](CCC(=O)O)NC(=O)[C@H](CO)NC(=O)[C@@H]1CCCN1C(=O)[C@H](C)NC(=O)CNC(=O)[C@H](Cc1ccc(O)cc1)NC(=O)CNC(=O)c1ccc2c(c1)C(=O)OC21c2ccc(O)cc2Oc2cc(O)ccc21)C(=O)N[C@@H](CC(C)C)C(=O)N[C@@H](CO)C(=O)N[C@@H](CCC(N)=O)C(=O)N[C@@H](Cc1ccc(O)cc1)C(=O)N[C@@H](CCC(=O)O)C(=O)N[C@@H](CC(N)=O)C(=O)NCC(=O)O` [TOPBP1(478-497)] (5FAM-GYGAPSEKHEQADEDLLSQYENG-OH), the dissociation constant Kd at GINS tetramer (fluorescein-labelled peptide 100 nM, increasing GINS, 25 mM HEPES pH 7.5, 150 mM NaCl, 1 mM EDTA, 0.25 mM TCEP, 0.02% Tween 20, n = 3 independent experiments, interval printed in figure (7.037 - 8.809), read-out: dissociation constant Kd (fluorescence polarisation)) was found to be 7.88 µM.

B1: fluorescently labelled GINI-core peptide (Ala478-Gly497), WT (peptide)
peptide: Flu-GYGAPSEKHEQADEDLLSQYENG
modifications: not fully specified; printed as Flu-GYGAPSEKHEQADEDLLSQYENG
notes: three residues printed before the TopBP1 stretch Ala478-Gly497; human TopBP1 GINI core, Ala478-Gly497; also called TopBP1-GINI-core peptide WT; source: synthetic peptide (Peptide Protein Research Ltd)
Consider B1, for which the Kd in assay [2] is ~8 µM.

B2: TopBP1-ΔBRCT0/1/2: TopBP1-BRCT0-5 with BRCT0-2 module removed (protein)
chain: NSLNSKLEPTLENLENLDVSAFQAPEDLLDGCRIYLCGFSGRKLDKLRRLINSGGGVRFNQLNEDVTHVIVGDYDDELKQFWNKSAHRPHVVGAKWLLECFSKGYMLSEEPYIHANYQPVEIPVSHKPESKAALLKKKNSSFSKKDFAPSEKHEQADEDLLSQYENGSSTVVEAKTSEARPFNDSTHAEPLNDSTHISLQEENQSSVSHCVPDVSTITEEGLFSQKSFLVLGFSNENESNIANIIKENAGKIMSLLSRTVADYAVVPLLGCEVEATVGEVVTNTWLVTCIDYQTLFDPKSNPLFTPVPVMTGMTPLEDCVISFSQCAGAEKESLTFLANLLGASVQEYFVRKSNAKKGMFASTHLILKERGGSKYEAAKKWNLPAVTIAWLLETARTGKRADESHFLIENSTKEERSLETEITNGINLNSDTAEHP
modifications: left off: His, N-terminal, state not stated | Strep, C-terminal, state not stated
notes: TopBP1-BRCT0-5 with BRCT0-2 module removed
Turning to B2, the “co-elution with GINS from size exclusion column” value with GINS complex is reported as “did not affect binding”. Moreover, in the assay on GINS, the “GINS binding? (rec. proteins)” value was “yes”.

The term Kd denotes the concentration at which binding is half-saturated.
